B1: CFHR2 (parent)
chain: FVENGHSESSGQTHLEGDTVQIIC
B2: TRAF3IP2 (parent)
chain: KQGSMNFRFIPVLFPNAKKEHVPT

Variants of: B1
Assay: protein stability index of a GFP-peptide fusion (GPS, HEK-293T) (PSI 1-6); higher = more stable
Details: c terminus: a fixed tail appended
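Note: lentivirally expressed fusions sorted by FACS into six bins by GFP to DsRed ratio, PSI derived from sequencing read proportions per bin multiplied by bin number.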

Protein stability index, by site and new letter:
G5: K 2.64 | E 4.09 | Y 3.09 | P 2.27 | M 2.28 | R 1.82 | L 2.77 | Q 2.57 | T 2.97 | C 2.03 | A 2.77 | D 3.64 | S 3.01 | N 3.23 | F 2.55 | W 3.48 | I 2.2 | V 2.87 | H 2.49
N4: D 3.92 | F 1.83 | G 2.59 | W 2.8 | E 3.47 | M 1.8 | I 2.13 | H 2.62 | Q 2.81 | R 2.05 | P 2.53 | K 3.03 | T 2.51 | A 2.42 | V 2.18 | S 2.4 | L 1.76 | Y 2.37 | C 1.98
F1: N 4.1 | R 3.83 | C 3.73 | H 4.43 | T 3.96 | P 4.61 | Q 4.37 | M 4.23 | S 4.14 | E 4.95 | A 4.27 | L 3.89 | G 4.33 | K 4.2 | Y 2.69 | I 4 | W 3.86 | D 4.7 | V 3.92
E3: A 2.11 | V 1.54 | F 2.04 | Q 1.83 | R 1.67 | H 2.08 | M 1.5 | D 1.74 | Y 1.98 | T 2.23 | S 2.12 | P 2.38 | L 1.81 | I 1.94 | C 1.38 | G 2.83 | K 1.78 | N 1.92 | W 1.56
V2: S 4.18 | L 3.59 | W 3.35 | R 3.96 | I 3.72 | P 3.88 | M 3.12 | F 3.62 | K 4.01 | G 3.62 | E 4.54 | Q 3.81 | A 4 | H 3.82 | D 4.19 | T 3.94 | C 4 | N 4.16 | Y 3.44
S7: A 2.72 | C 2.34
H6: A 3.02 | C 2.28 | Y 1.93 | G 3.12 | I 2.57 | S 2.92 | R 2.85 | V 2.74 | T 2.79 | W 2.7 | N 3.52 | D 3.87 | L 2.19 | M 2.32 | E 3.65 | P 3.18 | F 2.29 | Q 2.37 | K 3.33

Variants of: B2
Assay: as above
Details: c terminus: a fixed tail appended

Protein stability index: each site, then its substitutions
K19: T 1.75 | L 1.78 | G 1.95 | F 1.98 | C 1.7 | S 1.98 | A 1.66 | H 2.34 | Y 1.99 | M 1.59 | N 1.7 | P 1.6 | I 1.59 | R 1.59 | V 1.65 | W 1.65 | E 1.99 | Q 1.84 | D 2.13
F14: L 1.68 | T 2.76 | G 2.29 | H 2.12 | I 1.36 | W 2.46 | K 2.62 | C 1.87 | R 1.8 | S 2.42 | D 2.77 | V 2.3 | Y 1.95 | Q 2.71 | N 2.06 | M 2.56 | A 1.88 | E 3.19 | P 2.71
T24: P 2.14 | C 1.94 | W 2.06 | I 1.7 | R 2.33 | E 2.35 | K 2.19 | M 1.87 | Y 2.5 | N 1.97 | V 1.76 | H 1.89 | S 1.65 | D 2.16 | L 1.67 | Q 1.92 | F 1.75 | G 2.14 | A 2.25
P15: V 2.56 | T 2.54 | D 2.05 | M 1.58 | I 2.17 | A 1.66 | L 2.43 | W 2.67 | K 1.52 | N 1.87 | Q 1.41 | Y 2.04 | G 1.49 | F 2.2 | E 2.14 | C 1.7 | R 1.92 | S 1.75 | H 1.87
P23: F 1.79 | D 2.29 | W 2.58 | Y 1.84 | V 1.4 | Q 1.69 | S 1.88 | C 1.96 | T 2.27 | K 2 | L 2.16 | M 1.78 | I 1.77 | N 1.86 | E 2.19 | H 1.83 | R 2.05 | A 1.82 | G 2.15
K18: P 1.77 | S 1.71 | R 1.6 | E 2.15 | T 1.85 | W 1.65 | C 1.71 | M 1.76 | A 1.76 | N 1.93 | I 2.27 | H 1.89 | Q 1.77 | F 1.77 | L 1.61 | D 2.34 | Y 1.84 | V 1.65 | G 2.04
L13: R 1.93 | V 2.01 | P 1.87 | Y 1.82 | S 2.14 | Q 2.02 | W 2.09 | T 1.86 | N 2.28
E20: K 1.68 | Q 2.02 | S 1.73 | V 2.26 | F 1.93 | Y 1.77 | W 1.9 | M 2.3 | T 2.05 | N 2.15 | P 2.12 | C 1.85 | I 2.19 | L 1.67 | H 2.03 | D 2.33 | A 2.11 | R 1.65 | G 2.24
H21: T 2.15 | C 2.02 | I 1.59 | P 2.14 | Q 1.78 | K 1.77 | M 2.13 | W 1.81 | A 2.19 | D 2.06 | G 2.3 | V 1.94 | N 2.21 | S 2.07 | R 1.72 | E 2.47 | F 1.66 | Y 1.82 | L 2.23
V22: K 2.61 | H 1.73 | Q 1.96 | A 2.22 | C 2 | R 1.99 | S 3 | W 1.6 | P 1.82 | T 2.38 | M 2.24 | N 2.23 | D 2.89 | E 2.19 | I 2.11 | Y 1.91 | F 2.16 | G 2.4 | L 2.09
N16: V 1.55 | K 1.72 | A 1.75 | P 1.92 | H 1.66 | F 1.63 | M 1.88 | D 1.58 | T 1.7 | Q 1.75 | W 2 | C 1.89 | L 1.66 | I 2.29 | Y 1.8 | S 2.33 | G 2.08 | R 2.59 | E 1.85
A17: R 2 | W 1.74 | S 2.21 | E 2.47 | T 2.86 | Y 1.72 | Q 2.38 | L 1.89 | M 2.08 | F 1.64 | I 1.8 | P 2.07 | C 1.97 | V 1.61 | G 2.18 | K 1.82 | N 2 | H 1.92 | D 2.32
